Assay results taken from doi:10.1101/2022.05.18.492403 (bioRxiv, 2022).

Target: the molecule itself
Experiment: crystal structure

| Protein | stoichiometry N |
| --- | --- |
| C-terminal StrepII-tagged ScSbtB C105A+C110A variant (natural protein, Synechocystis sp. PCC 6803) MAKPANKLVIVTEKILLKKIAKIIDESGAKGYTVMNTGGKGSRNVRSSGQPNTSDIEANIKFEILTETREMAEEIADRVAVKYFNDYAGIIYICSAEVLYGHTFAGPEGA | 3 |
| truncated C-terminal StrepII-tagged ScSbtB protein (SbtB-Δ104) (domain or fragment, Synechocystis sp. PCC 6803, UniProt P73954 1-104, looked up) MAKPANKLVIVTEKILLKKIAKIIDESGAKGYTVMNTGGKGSRNVRSSGQPNTSDIEANIKFEILTETREMAEEIADRVAVKYFNDYAGIIYICSAEVLYGHTF | 3 |
